Assay results as given in PMC9536202.

Assays:
[1] = biological target: Motility associated killing factor A (MakA), wild type; test: SEC
MakA^W243D = test: SEC

Substance | percent monomer [1] [%] | percent oligomer [1] [%] | percent oligomer (MakA^W243D) [%]
Motility associated killing factor A (MakA), wild type (natural protein) | 80 | 20 | –
MakA^W243D (natural protein) | – | – | 100
